In the RNAGym collection of RNA variant scans (doi:10.1021/acssynbio.7b00057):

B1: Pistol ribozyme (parent)
chain: GGGUCGUUGUUCCAUAAUCGCGUGGAUAUGGCACGCAAGUUUCUACCGGGCACCGUAAAUGUCCGACUGGAGCCGUUCGGGCGGCUAUAAACAGACCUCAGGCCCGAAGCGUGGCGGCACCUGCCGCCGGUGGUAAAAAAGAUCGGAAGAGCACACGUCU

Variants of: B1
Test: aptazyme ON/OFF ratio, guanine; higher = stronger switching; co-transcriptional cleavage with and without guanine

| Variant | aptazyme ON/OFF ratio |
| --- | --- |
| U7C U8G G9A C13U | 1.11 |
| U7C U8G G9A C13A | 1.14 |
| U7C U8G G9A C13G | 1.05 |
| U7C U8G G9A U10A C12A C13A | 1.17 |
| U7C U8G G9A U10A C12A C13U | 1.19 |
| U7C U8G G9A U10A C12A C13G | 1.1 |
| U7C U8G G9A U10A U11G C12G C13A | 1.19 |
| U7C U8G G9A U10A U11G C12G C13G | 1.39 |
| U7C U8G G9A U10A U11G C12G C13U | 1.33 |
| U7C U8G G9A U10C C12G C13U | 1.31 |
| U7C U8G G9A U10C C12G C13A | 1.13 |
| U7C U8G G9A U10C C12G C13G | 1.12 |
| U7C U8C U11G C12G | 1.33 |
| U7C U8C U11G C12U | 1.25 |
| U7C U8C U11G C12A | 1.35 |
| U7C U8G G9A U10C U11A C12A C13G | 1.08 |
| U7C U8G G9A U10C U11A C12A C13A | 1.11 |
| U7C U8G G9A U10C U11A C12A C13U | 1.07 |
| U7C U8G C13U | 2.24 |
| U7C U8G C13A | 1.25 |
| U7C U8G C13G | 1.16 |
| U7C U8G C12U | 2.44 |
| U7C U8G C12A | 1.63 |
| U7C U8G C12G | 1.29 |

| Variant | aptazyme ON/OFF ratio |
| --- | --- |
| U7C U8G G9A C12A C13G | 1.16 |
| U7C U8G G9A C12A C13A | 1.28 |
| U7C U8G G9A C12A C13U | 1.29 |
| U7C U8G G9A U10A C12U | 1.19 |
| U7C U8G G9A U10A C12G | 1.18 |
| U7C U8G G9A U10A C12A | 1.26 |
| U7C U8G G9A U10A U11G C12A C13A | 1.13 |
| U7C U8G G9A U10A U11G C12A C13U | 1.16 |
| U7C U8G G9A U10A U11G C12A C13G | 1.19 |
| U7C U8G G9A U10A U11A C12A C13G | 1.2 |
| U7C U8G G9A U10A U11A C12A C13A | 1.2 |
| U7C U8G G9A U10A U11A C12A C13U | 1.21 |
| U7C U8C U11C C12G | 1.16 |
| U7C U8C U11C C12U | 1.34 |
| U7C U8G G9A U10A U11C C12U | 1.05 |
| U7C U8G G9A U10A U11C C12G | 1.25 |
| U7C U8G G9A U10A U11C C12A | 1.21 |
| U7C U8G G9A U10A | 1.18 |
| U7C U8G G9A U10C | 3.63 |
| U7C U8G G9A U10C U11C C12A C13A | 1.03 |
| U7C U8G G9A U10C U11C C12A C13U | 1.06 |
| U7C U8G G9A U10C U11C C12A C13G | 1.04 |
| U7C U8G G9A U10A C12U C13G | 1.17 |
| U7C U8G G9A U10A C12U C13A | 1.18 |

| Variant | aptazyme ON/OFF ratio |
| --- | --- |
| U7C U8G G9A U10A C12U C13U | 1.27 |
| U7C U8C U11G C12G C13U | 1.09 |
| U7C U8C U11G C12G C13A | 1.1 |
| U7C U8C U11G C12G C13G | 1.16 |
| U7C U8G | 1.35 |
| U7C U8C U11G C13G | 1.28 |
| U7C U8C U11G C13A | 1.24 |
| U7C U8C U11G C13U | 1.3 |
| U7C U8G G9A U10A U11C C12U C13A | 1.14 |
| U7C U8G G9A U10A U11C C12U C13G | 1.08 |
| U7C U8G G9A U10A U11C C12U C13U | 1.08 |
| U7C U8G G9A U10C U11C | 1.03 |
| U7C U8G G9A U10C U11A | 1.24 |
| U7C U8G G9A U10C U11A C12G C13A | 1.07 |
| U7C U8G G9A U10C U11A C12G C13U | 1.11 |
| U7C U8G G9A U10C U11A C12G C13G | 1.09 |
| U7C U8G G9A U10C U11C C12G C13A | 1.13 |
| U7C U8G G9A U10C U11C C12G C13G | 1.14 |
| U7C U8G G9A U10C U11C C12G C13U | 1.07 |
| U7C U8C U11C C12A C13U | 1.28 |
| U7C U8C U11C C12A C13G | 1.18 |
| U7C U8C U11C C12U C13U | 1.43 |
| U7C U8C U11C C12U C13A | 1.37 |
| U7C U8C U11C C12U C13G | 1.2 |

| Variant | aptazyme ON/OFF ratio |
| --- | --- |
| U7C U8G G9A U10C U11A C12U | 1.09 |
| U7C U8G G9A U10C U11A C12G | 1.13 |
| U7C U8G G9A U10C U11A C12A | 1.15 |
| U7C U8G G9A U10A U11A C12A | 1.26 |
| U7C U8G G9A U10A U11A C12U | 1.18 |
| U7C U8G G9A U10A U11A C12G | 1.1 |
| U7C U8G G9A U10A U11G C12A | 1.06 |
| U7C U8G G9A U10A U11G C12U | 1.38 |
| U7C U8G G9A U10A U11G C12G | 1.25 |
| U7C U8C U11G | 1.31 |
| U7C U8G G9A U10C C12G | 1.23 |
| U7C U8G G9A U10C C12U | 2.39 |
| U7C U8G G9A U10C C12A | 1.18 |
| U7C U8G G9A U10A C12G C13A | 1.11 |
| U7C U8G G9A U10A C12G C13G | 1.46 |
| U7C U8G G9A U10A C12G C13U | 1.31 |
| U7C U8G G9A C12G C13U | 1.21 |
| U7C U8G G9A C12G C13A | 1.15 |
| U7C U8G G9A C12G C13G | 1.12 |
| U7C U8G C12A C13U | 1.27 |
| U7C U8G C12A C13A | 1.22 |
| U7C U8G C12A C13G | 1.08 |
| U7C U8G C12G C13G | 1.08 |
| U7C U8G C12G C13U | 1.17 |

| Variant | aptazyme ON/OFF ratio |
| --- | --- |
| U7C U8G C12G C13A | 1.09 |
| U7C U8C U11C C12G C13U | 1.33 |
| U7C U8C U11C C12G C13A | 1.4 |
| U7C U8C U11C C12G C13G | 1.31 |
| U7C U8G G9A U10C U11A C13G | 1.07 |
| U7C U8G G9A U10C U11A C13A | 1.12 |
| U7C U8G G9A U10C U11A C13U | 1.09 |
| U7C U8G G9A | 1.12 |
| U7C U8C U11G C12U C13G | 1.11 |
| U7C U8C U11G C12U C13U | 1.22 |
| U7C U8C U11G C12U C13A | 1.14 |
| U7C U8G C12U C13A | 1.22 |
| U7C U8G C12U C13U | 1.3 |
| U7C U8G C12U C13G | 1.18 |
| U7C U8G G9A U10A U11C C13U | 1.04 |
| U7C U8G G9A U10A U11C C13G | 1.02 |
| U7C U8G G9A U10A U11C C13A | 1.03 |
| U7C U8G G9A U10A U11C | 1.04 |
| U7C U8G G9A U10A U11G | 1.33 |
| U7C U8G G9A U10A U11A | 1.31 |
| U7C U8G G9A U10A C13G | 1.05 |
| U7C U8G G9A U10A C13A | 1.12 |
| U7C U8G G9A U10A C13U | 1.15 |
| U7C U8G G9A U10A U11C C12A C13G | 1.15 |

| Variant | aptazyme ON/OFF ratio |
| --- | --- |
| U7C U8G G9A U10A U11C C12A C13A | 1.15 |
| U7C U8G G9A U10A U11C C12A C13U | 1.17 |
| U7C U8G G9A U10A U11A C12G C13U | 1.21 |
| U7C U8G G9A U10A U11A C12G C13A | 1.12 |
| U7C U8G G9A U10A U11A C12G C13G | 1.21 |
| U7C U8G G9A U10C C12U C13G | 1.07 |
| U7C U8G G9A U10C C12U C13A | 1.08 |
| U7C U8G G9A U10C C12U C13U | 1.1 |
| U7C U8G G9A C12U C13A | 1.16 |
| U7C U8G G9A C12U C13U | 1.22 |
| U7C U8G G9A C12U C13G | 1.35 |
| U7C U8G G9A U10A U11G C13A | 1.2 |
| U7C U8G G9A U10A U11G C13U | 1.27 |
| U7C U8G G9A U10A U11G C13G | 1.02 |
| U7C U8G G9A U10A U11G C12U C13G | 1.25 |
| U7C U8G G9A U10A U11G C12U C13U | 1.35 |
| U7C U8G G9A U10A U11G C12U C13A | 1.24 |
| U7C U8G G9A U10C U11A C12U C13A | 1.07 |
| U7C U8G G9A U10C U11A C12U C13U | 1.05 |
| U7C U8G G9A U10C U11A C12U C13G | 1.05 |
| U7C U8G G9A U10A U11A C12U C13A | 1.17 |
| U7C U8G G9A U10A U11A C12U C13G | 1.17 |
| U7C U8G G9A U10A U11A C12U C13U | 1.16 |
| U7C U8G G9A U10C C13G | 1.06 |

| Variant | aptazyme ON/OFF ratio |
| --- | --- |
| U7C U8G G9A U10C C13A | 1.04 |
| U7C U8G G9A U10C C13U | 1.92 |
| U7C U8C U11C C13G | 1.12 |
| U7C U8C U11C C13A | 1.24 |
| U7C U8C U11C C13U | 1.3 |
| U7C U8G G9A C12G | 1.29 |
| U7C U8G G9A C12A | 1.34 |
| U7C U8G G9A C12U | 1.19 |
| U7C U8G G9A U10A U11A C13U | 1.12 |
| U7C U8G G9A U10A U11A C13A | 1.12 |
| U7C U8G G9A U10A U11A C13G | 1.07 |
| U7C U8C U11G C12A C13U | 1.2 |
| U7C U8C U11G C12A C13A | 1.14 |
| U7C U8C U11G C12A C13G | 1.11 |
| U7C U8G G9A U10A U11C C12G C13U | 1.45 |
| U7C U8G G9A U10A U11C C12G C13G | 1.34 |
| U7C U8G G9A U10A U11C C12G C13A | 1.32 |
| U7C U8G G9A U10C C12A C13A | 1.13 |
| U7C U8G G9A U10C C12A C13G | 1.09 |
| U7C U8G G9A U10C C12A C13U | 1.14 |
| U7C U8G G9A U10C U11C C12A | 1.05 |
| U7C U8G G9A U10C U11C C12U | 1.01 |
| U7C U8G G9A U10C U11C C12G | 1.03 |
